{"source": "paper PMC6336276", "key": {"P69949": {"tested_on": "P69949", "experiment": "AUC; sedimentation velocity of Str. enolase alone, TME-SO4, 20°C, 37000 rpm; c(s) distribution, percent octamer and monomer; octamer to monomers and other species"}, "[1]": {"molecular_target": "Str. enolase DB (Streptococcus pyogenes) (UniProt P69949)", "experiment": "AUC; sedimentation velocity of Str. enolase alone, TME-SO4, 20°C, 37000 rpm; c(s) distribution, percent octamer and monomer; octamer to monomers and other species"}, "[2]": {"molecular_target": "Str. enolase DB no hexa-his tag (Streptococcus pyogenes) (UniProt P69949)", "experiment": "AUC; sedimentation velocity of Str. enolase alone, TME-SO4, 20°C, 37000 rpm; c(s) distribution, percent octamer and monomer; octamer to monomers and other species"}, "[3]": {"molecular_target": "Str. enolase F137L/E363G (Streptococcus pyogenes) (UniProt P69949)", "experiment": "AUC; sedimentation velocity of Str. enolase alone in different buffers (KPi with or without Mg(II), NaCl, imidazole; TME-SO4); octamer to monomers, dimers, tetramers"}, "[4]": {"molecular_target": "Str. enolase 137/363–4 (Streptococcus pyogenes) (UniProt P69949)", "experiment": "AUC; sedimentation velocity, TME-SO4, 20°C; five concentrations of 137/363–4 (1-11.7 μM) and DPgn (0.43-4.2 μM); global fit to an equilibrium constant in Sedphat"}, "[5]": {"molecular_target": "Str. enolase DB (Streptococcus pyogenes) (UniProt P69949)", "experiment": "AUC; sedimentation velocity, 20°C, 37000 rpm, TME-SO4; DPgn alone, Str. enolase alone and the mixture at the same concentrations; shift of the s value of the DPgn peak (Sedfit c(s), DCDT+)"}, "[6]": {"molecular_target": "Str. enolase 137/363–2 K252A K255A (Streptococcus pyogenes) (UniProt P69949)", "experiment": "dual polarization interferometry (DPI); Str. enolase adsorbed first on an unmodified silicon oxynitride chip, then DPgn injected; 3 μM each protein, 8 min injections, 25 μL/min/channel, 20°C; proteins in TME-SO4, wash buffer 10 mM phosphate"}, "[7]": {"molecular_target": "Str. enolase DB (Streptococcus pyogenes) (UniProt P69949)", "experiment": "dual polarization interferometry (DPI); Str. enolase adsorbed first on an unmodified silicon oxynitride chip, then DPgn injected; 3 μM each protein, 8 min injections, 25 μL/min/channel, 20°C; proteins in TME-SO4, wash buffer 10 mM phosphate"}, "[8]": {"molecular_target": "Str. enolase 137/363–4 (Streptococcus pyogenes) (UniProt P69949)", "experiment": "SPR; localized SPR (Nicoya OpenSPR); hexa-his-tagged Str. enolase 137/363–4 immobilised on a Ni-NTA chip, DPgn injected at successive concentrations in duplicate, ovalbumin as control; Pi, imidazole, NaCl buffer; close to 27 °C; one to two model (TraceDrawer 1.5)"}}}
{"substance": "Str. enolase 137/363–2 K252A K255A", "values": [{"measurement": "% monomer (from AUC)", "setting": "P69949", "result": 70.4, "unit": "%"}]}
{"substance": "Str. enolase DB", "values": [{"measurement": "% monomer (from AUC)", "setting": "P69949", "result": "0.4 (nil?)"}]}
{"substance": "Str. enolase DB (from UniProt P69949 1-435) (enzyme)", "values": [{"measurement": "% octamer (from AUC)", "setting": "[1]", "result": 88, "unit": "%"}, {"measurement": "stoichiometry N", "setting": "[1]", "result": 8}]}
{"substance": "Str. enolase DB no hexa-his tag", "values": [{"measurement": "% monomer (from AUC)", "setting": "P69949", "result": 1.3, "unit": "%"}]}
{"substance": "Str. enolase DB no hexa-his tag (from UniProt P69949 1-435) (enzyme)", "values": [{"measurement": "% octamer (from AUC)", "setting": "[2]", "result": 81.6, "unit": "%"}]}
{"substance": "Str. enolase F137L/E363G (from UniProt P69949 1-435) (enzyme)", "values": [{"measurement": "stoichiometry N", "setting": "[3]", "result": 8}]}
{"substance": "canine plasminogen (natural protein)", "values": [{"measurement": "Ka", "setting": "[4]", "result": 340000, "unit": "M⁻¹"}, {"measurement": "Kd", "setting": "[4]", "result": 3, "unit": "µM"}, {"measurement": "Ka", "setting": "[5]", "result": "< 10000", "unit": "M⁻¹"}, {"measurement": "mass of enolase + DPgn layer", "setting": "[6]", "result": 5.3, "unit": "ng/mm^2"}, {"measurement": "mass of enolase + DPgn layer", "setting": "[7]", "result": 2.8, "unit": "ng/mm^2"}, {"measurement": "KD1 (site 1 of a one to two model)", "setting": "[8]", "result": 1.34, "unit": "µM"}, {"measurement": "KD2 (site 2 of a one to two model)", "setting": "[8]", "result": 2.66, "unit": "µM"}, {"measurement": "ka1 (site 1 of a one to two model)", "setting": "[8]", "result": 1300}, {"measurement": "ka2 (site 2 of a one to two model)", "setting": "[8]", "result": 9600}, {"measurement": "kd1 (site 1 of a one to two model)", "setting": "[8]", "result": 0.0017}, {"measurement": "kd2 (site 2 of a one to two model)", "setting": "[8]", "result": 0.026}, {"measurement": "stoichiometry N (DPgn per enolase monomer)", "setting": "[8]", "result": 1.6}]}
